Experimental data published in patent US8987201B2, “Black bear parathyroid hormone and methods of using black bear parathyroid hormone” (Michigan Technological University, priority 2009, dated 2015).
Marks after values point to notes of the source that are not given here. No end group written: not given here.

Key:
rats = conditions: long-term usage; cited from earlier work
[1] = Serum calcium levels in the rat OVX dose response study; type: in vivo; conditions: OVX rats; not significant at the p<0.05 level
Method: Ninety female, 3-month old Sprague-Dawley rats were obtained. Eighty (80) of the rats were ovariectomized (OVX) and ten (10) underwent a sham OVX procedure (sham OVX) in which the ovaries were left in the animal. The OVX animals were randomly assigned into groups of ten for further experiments.
Following the actual or sham OVX procedure, all animals were untreated for 6 weeks to allow bone loss. After the 6 week period of bone loss, groups of animals were injected for a six- or eight-week period (daily for five days per week) with vehicle (saline) or 3, 10, or 30 μg/kg bear or human PTH1-34. […] The sham OVX group as well as one group of actual OVX rats were euthanized at six weeks while the remaining animals were euthanized at fourteen weeks following the OVX procedure. Samples were obtained from the euthanized animals for further analysis.

ovariectomized rats = conditions: cited from earlier work
Male Swiss-Webster mice [2] = assay: Cortical bone mechanical properties of the femur (3-point bending); type: in vivo, mouse; conditions: 2.5 nmol/kg, 8 weeks
Description: (§1) All handling procedures and experiments were approved by the Michigan Technological University Institutional Animal Care and Use Committees. Male Swiss-Webster mice were obtained from a commercial breeder (Harlan, Indianapolis, Ind.). All animals were maintained on a 12-h light/12-h dark cycle, and were permitted free access to water and food containing 0.95% calcium (Purina Rodent Diet #5001).
In the first experiment, 11 wk old mice received daily (5 days/week) subcutaneous injections of 2.5 nmol/kg PTH 1-34 (hPTH 1-34 or bbPTH 1-34) or acidic saline vehicle (0.15 M NaCl+0.001 N HCl) for 8 weeks (n=10 mice/group). In the second experiment, 12 wk old mice received daily (5 days/week) subcutaneous injections of 2.5 nmol/kg PTH 1-84 (hPTH 1-84 or bbPTH 1-84) or acidic saline vehicle for 8 weeks (n=10 mice/group). […]
Left femurs were loaded to failure in 3-point bending on an Instron mechanical testing system (Model #8872, Canton, Mass.) at a rate of 1 mm/min. […] Ultimate load was calculated using the load-deformation data from testing.
All bone geometrical, architectural, and mineral properties were normalized by body mass to account for potential variation in animal size (31-33). Trabecular bone properties quantified by micro-computed tomography were compared by ANOVA between vehicle, bear, and human PTH-treated mice within each study (PTH 1-34 or PTH 1-84). […]

Male Swiss-Webster mice [3] = assay: Cortical bone mineral content (ash fraction) and geometrical properties of the femur; type: in vivo, mouse; conditions: femoral midshaft, 2.5 nmol/kg s.c., 8 weeks, normalized by body mass, SD in parentheses
Description: as §1
(§2) In the first experiment, 11 wk old mice received daily (5 days/week) subcutaneous injections of 2.5 nmol/kg PTH 1-34 (hPTH 1-34 or bbPTH 1-34) or acidic saline vehicle (0.15 M NaCl+0.001 N HCl) for 8 weeks (n=10 mice/group). In the second experiment, 12 wk old mice received daily (5 days/week) subcutaneous injections of 2.5 nmol/kg PTH 1-84 (hPTH 1-84 or bbPTH 1-84) or acidic saline vehicle for 8 weeks (n=10 mice/group). All PTH- and vehicle-treated animals received subcutaneous injections of calcein at a dosage of 10 mg/kg on days 12 and 3 before death to label mineralizing bone surfaces. Twenty-four hours following the last treatment injection, mice were sacrificed by carbon dioxide asphyxiation. Right femurs were fixed in 10% neutral buffered formalin. Left femurs were wrapped in 0.15M saline soaked gauze and stored at −20 deg C. Left tibias were stored in 70% ethanol at 4 deg C.
(§3) Following the bending test, the left femoral diaphyses were ashed in a furnace to determine mineral content (ash fraction). Right femoral diaphyses were embedded in methyl methacrylate and sectioned with a diamond saw to expose the midshaft cross-section. Images of the midshaft cross-sections were captured using a digital camera (Spot Insight QE, Diagnostic Instruments Inc., Sterling Heights, Mich.), and Scion Image analysis software (Scion Corporation, Frederick, Md.) was used to calculate the periosteal area (Ps.Ar), cortical area (Ct.Ar), and endosteal area (Es.Ar) for each sample. Cortical bone thickness (Ct.Th) was calculated in 0.1 mm increments for each anatomical quadrant and for the entire cross-section using image analysis software (Bioquant Osteo, Nashville, Tenn.). Thin sections from the midshaft of the right femur were ground to a thickness of 50 μm and mounted on glass slides. Images of calcein labels were captured at 100× magnification and periosteal and endosteal mineral apposition rates (Ps.MAR and Es.MAR, respectively) and mineralizing surfaces (Ps.MS/BS and Es.MS/MS) were quantified (Bioquant) for each femur.
(§4) All bone geometrical, architectural, and mineral properties were normalized by body mass to account for potential variation in animal size (31-33). Trabecular bone properties quantified by micro-computed tomography were compared by ANOVA between vehicle, bear, and human PTH-treated mice within each study (PTH 1-34 or PTH 1-84). The microCT parameters were not directly compared between the PTH 1-34 and PTH 1-84 studies because analyses were conducted on different microCT machines. For all other bone properties, all six experimental groups (from both the PTH 1-34 and PTH 1-84 studies) were compared with ANOVA and Fisher's PLSD. A significance of p<0.05 was used for all comparisons.

[4] = tested on: human fetal osteoblasts (hFOB); assay: Serum starvation cell death in human fetal osteoblasts (trypan blue); type: cell-based; conditions: 100 nM for 1 hour before serum starvation for 24 hours, preliminary studies, p<0.0001
Method: All PTH peptides used in the current study attenuated apoptotic signaling induced by serum starvation in vitro (FIG. 19). bbPTH 1-34 reduced apoptotic signaling in pre-osteoblastic cells more than human PTH (FIG. 19). Recently, we found similar results with preliminary studies in human fetal osteoblasts (hFOB). Serum starvation for 24 hours increased cell death in hFOB (confirmed via trypan blue staining), but pretreatment of hFOB cells with 100 nM PTH 1-34 or 1-84 for 1 hour before starvation reduced percent cell death (percentage change in cell death compared to vehicle pretreatment, hPTH 1-34: −18%, bbPTH 1-34: −25%, hPTH 1-84: −17%, bbPTH 1-84: −21%; p<0.0001; data not shown). […] However, although bbPTH 1-84 was less anti-apoptotic than bbPTH 1-34 and hPTH 1-34 in vitro (FIG. 19) it caused the greatest increases in cortical and trabecular bone mass in the in vivo studies (Table 1, Table 2).

Male Swiss-Webster mice [5] = assay: Trabecular bone structure and mineralization in the proximal tibia (micro-computed tomography); type: in vivo, mouse; conditions: 8 weeks
Description: as §1, §2
Trabecular bone architecture and mineralization were evaluated in the left proximal tibial metaphysis (0.7 mm distal to the growth plate) using micro-computed tomography. Tibias from experiment 1 were scanned on a μCT35 scanner (Scanco Medical AG, Basserdorf, Switzerland) at 3.5 μm (high) resolution. Tibias from experiment 2 were scanned on a μCT40 scanner (Scanco Medical AG, Basserdorf, Switzerland) at 7 μm (high) resolution. Bones were scanned in 70% ethanol. Trabecular bone volume fraction (BV/TV, %), trabecular number (Tb.N, mm^−1), trabecular thickness (Tb.Th, m), trabecular separation (Tb.Sp, m), trabecular apparent mineral density (App.Mn.Dn, mgHA/cm^3) and trabecular tissue mineral density (Mat.Mn.Dn, mgHA/cm^3) were computed using the manufacturer's software.
as §4

Male Swiss-Webster mice [6] = assay: Cortical bone dynamic histomorphometry in the femur (calcein labels); type: in vivo, mouse; conditions: femoral midshaft, 2.5 nmol/kg s.c., 8 weeks, SD in parentheses
Description: as §1, §2, §3, §4

[7] = tested on: ovariectomized (OVX) Sprague-Dawley rats; assay: In vivo effects of human PTH1-84 and bear PTH1-84 in ovariectomized rats; design: species or system rat; conditions: 2.5 nmol/kg s.c., eight weeks
Method: Thirty female, 2.5-month old Sprague-Dawley rats were ovariectomized (OVX) at the commercial breeding facility The OVX animals were randomly assigned into 3 groups of 10 animals per group for further experiments.
Six weeks after the OVX procedure, the rats were injected subcutaneously for an eight-week period (daily for five days per week) with vehicle (saline) or 2.5 nmol/kg bear or human PTH1-84. Animals were euthanized 24 hours after the last injection. Samples were obtained from the euthanized animals for further analysis.
Femur bending strength and proximal tibia trabecular architecture were investigated as described in Example 12.

[8] = PTH 1-84 study: 12 wk old mice, 2.5 nmol/kg s.c., proximal tibia, normalized by body mass

## CC[C@H](C)[C@H](NC(=O)[C@H](CCC(=O)O)NC(=O)[C@H](CO)NC(=O)[C@@H](NC(=O)[C@@H](N)CO)C(C)C)C(=O)N[C@@H](CCC(N)=O)C(=O)N[C@@H](CC(C)C)C(=O)N[C@@H](CCSC)C(=O)N[C@@H](Cc1cnc[nH]1)C(=O)N[C@@H](CC(N)=O)C(=O)N[C@@H](CC(C)C)C(=O)NCC(=O)N[C@@H](CCCCN)C(=O)N[C@@H](Cc1cnc[nH]1)C(=O)N[C@@H](CC(C)C)C(=O)N[C@@H](CC(N)=O)C(=O)N[C@@H](CO)C(=O)N[C@@H](CCSC)C(=O)N[C@@H](CCC(=O)O)C(=O)N[C@@H](CCCN=C(N)N)C(=O)N[C@H](C(=O)N[C@@H](CCC(=O)O)C(=O)N[C@@H](Cc1c[nH]c2ccccc12)C(=O)N[C@@H](CC(C)C)C(=O)N[C@@H](CCCN=C(N)N)C(=O)N[C@@H](CCCCN)C(=O)N[C@@H](CCCCN)C(=O)N[C@@H](CC(C)C)C(=O)N[C@@H](CCC(N)=O)C(=O)N[C@@H](CC(=O)O)C(=O)N[C@H](C(=O)N[C@@H](Cc1cnc[nH]1)C(=O)N[C@@H](CC(N)=O)C(=O)N[C@@H](Cc1ccccc1)C(=O)O)C(C)C)C(C)C [LY333334]
rats
  osteosarcoma in rats: generates osteosarcoma

## SVSEIQFMHNLGKHLSSMERVEWLRKKLQDVHNF [bbPTH 1-34, black bear PTH 1-34]
[1]
  serum calcium levels compared to human PTH1-34: lower

## bovine PTH 1-34 (AVSEIQFMHNLGKHLSSMERVEWLRKKLQDVHNF; Parathyroid hormone; UniProt P01268 32-65, looked up, fragment) [1-34 fragment of bovine PTH]
Ovariectomized rats; daily 25 μg injections
  greater bone formation response than to rat PTH 1-34: 25%
Ovariectomized rats; injection
  greater increase in bone volume fraction during treatment: 37%

B1: black bear PTH1-84 (protein, listed as Ursus americanus)
chain: SVSEIQFMHNLGKHLSSMERVEWLRKKLQDVHNFVALGAPTAHRDGGSQRPQKKEDNVLVENHQKSLGEADKADVDVLTKAKSQ
Male Swiss-Webster mice [2]
  increase in bone strength (ultimate load of the femur), bear peptide compared to the corresponding human peptide: significantly (p=0.032) greater
Male Swiss-Webster mice [2]; only for this peptide
  increase of femoral ultimate load over vehicle treatment: statistically significant
Male Swiss-Webster mice [3]
  Ct.Ar: 31.7 (3.7) mm^2/kg
  Ct.Th: 3.56 (0.42)^a mm/kg
  Es.Ar: 26.6 (4.6) mm^2/kg
  Ps.Ar: 58.3 (5.0)^a,b mm^2/kg
[4]
  percentage change in cell death compared to vehicle pretreatment: −21%
Male Swiss-Webster mice [5]; PTH 1-84 study: 12 wk old mice, 2.5 nmol/kg s.c. daily 5 days/week, proximal tibia, normalized by body mass
  BV/TV: 2.26 %/kg
Male Swiss-Webster mice [5]; [8]
  App. Mn. Dn: 3665 mgHA/(cm^3*kg)
  Mat. Mn. Dn.: 30552 mgHA/(cm^3*kg)
  Tb. N: 113.8 1/mm*kg
  Tb. Sp: 8.47 mm/kg
  Tb. Th: 1.38 mm/kg
Male Swiss-Webster mice [5]; mice, 2.5 nmol/kg, bbPTH 1-84 vs hPTH 1-84 p=0.019
  trabecular apparent mineral density compared to other treatments: highest
Male Swiss-Webster mice [5]; mice, 2.5 nmol/kg, only this peptide
  trabecular bone volume fraction and apparent mineral density over vehicle treatment: significantly increased over vehicle treatment
Male Swiss-Webster mice [5]; mice, 2.5 nmol/kg, p=0.013
  bone volume fraction in the proximal tibia compared to hPTH 1-84: greater
Male Swiss-Webster mice [6]
  Endosteal MAR: 0.59 (0.42)
  Endosteal MS/BS: 24.5 (17.2)
  Periosteal MAR: 0.62 (0.33)
  Periosteal MS/BS: 31.3 (22.5)
[7]
  bone volume fraction / trabecular bone volume: equivalently increase
  increases in cortical bone strength compared to hPTH1-84: greater increases
  ultimate load of the femur compared to vehicle treatment: significantly (p=0.013) increased
